Our source for the Kd values is the Immune Epitope Database (IEDB).

One assay concerns the target HLA-A*02:06. Put plainly: IEDB peptide-MHC binding, purified MHC/competitive/radioactivity; filed as Kd, often an IC50 or EC50 that approximates it; ≥ and ≤ were set here for values at or beyond the usual limits of such assays.
The next assay has as its target HLA-A*02:03. Described as above.
For a further assay, the target named is HLA-A*02:02. Described as above.
In a further assay the target is HLA-A*01:01. Put plainly: IEDB peptide-MHC binding, purified MHC/direct/fluorescence; filed as Kd, often an IC50 or EC50 that approximates it; ≥ and ≤ were set here for values at or beyond the usual limits of such assays.
Where [1] appears, read: source organism: Vaccinia virus WR.
Setting [2] is: source organism: SARS coronavirus Tor2.
Setting [3] is: source organism: Lassa virus Josiah.
[4] abbreviates: source organism: Dengue virus 3 Martinique/1243/1999.
The mark [5] stands for this setting: source organism: Vaccinia virus Copenhagen.
The mark [6] stands for this setting: source organism: Lymphocytic choriomeningitis virus (strain Armstrong).
The mark [7] stands for this setting: source organism: Mammarenavirus brazilense.

As a reminder, the Kd is the constant that tells how readily two partners part at equilibrium. As to AVLSEYETMV, the Kd with HLA-A*02:06 (setting [1]) stood at 23.6 nM; with HLA-A*02:03 (setting [1]), 1.47 nM; with HLA-A*02:02 (setting [1]), 0.758 nM.

CASSSDWFY had a Kd with HLA-A*01:01 (source organism: Tobacco leaf curl Zimbabwe virus) of 2.1 nM.

Take CLEAKTHFST: the equilibrium dissociation constant (Kd) in the assay with HLA-A*02:06 (setting [1]) was at least 69800 nM; in the assay with HLA-A*02:03 (setting [1]) it was 11100 nM; with HLA-A*02:02 (setting [1]), 12400 nM.

Turning to DIDLLFNEKL, the results for the Kd with HLA-A*02:06 (setting [1]), with HLA-A*02:03 (setting [1]) and in the assay with HLA-A*02:02 (setting [1]) were at least 25700 nM, at least 26700 nM and 11200 nM, respectively.

As for DILQMREIIT, the results for the Kd in the assay with HLA-A*02:06 (setting [1]), with HLA-A*02:03 (setting [1]) and with HLA-A*02:02 (setting [1]) were 17700 nM, at least 56200 nM and at least 45500 nM, respectively.

As to EIARIENEM, the equilibrium dissociation constant (Kd) was at least 77100 nM in the assay with HLA-A*02:06 (setting [1]), at least 47900 nM with HLA-A*02:03 (setting [1]) and 335 nM in the assay with HLA-A*02:02 (setting [1]).

In the case of ELKHGLLDSI, the equilibrium dissociation constant (Kd) with HLA-A*02:06 (setting [1]) turned out to be 1340 nM; with HLA-A*02:03 (setting [1]), 54.8 nM; with HLA-A*02:02 (setting [1]), 540 nM.

Regarding FISIYSRPKI, the values for the Kd with HLA-A*02:06 (setting [1]), with HLA-A*02:03 (setting [1]) and with HLA-A*02:02 (setting [1]) were 396 nM, 102 nM and 22.8 nM, respectively.

FLFLAWIML: the Kd with HLA-A*02:06 (setting [2]) worked out at 36.7 nM; with HLA-A*02:03 (setting [2]) it was 37.7 nM; with HLA-A*02:02 (setting [2]), 1.81 nM.

As for FLFWFLKSGA, the Kd with HLA-A*02:06 (setting [1]) turned out to be 22.8 nM; with HLA-A*02:03 (setting [1]) it was 0.584 nM; with HLA-A*02:02 (setting [1]), 1.07 nM.

In the case of FQSHQLWAT, the Kd with HLA-A*02:06 (source organism: Dengue virus 1 Singapore/S275/1990) is 25.6 nM.

Turning to FSTSFYLISI, the values for the Kd with HLA-A*02:06 (setting [3]), in the assay with HLA-A*02:03 (setting [3]) and with HLA-A*02:02 (setting [3]) were 9.23 nM, 52.6 nM and 2.13 nM, respectively.

Take FVSTMPVET: the values for the equilibrium dissociation constant (Kd) with HLA-A*02:06 (setting [1]), with HLA-A*02:03 (setting [1]) and with HLA-A*02:02 (setting [1]) were 1540 nM, 391 nM and 1220 nM, respectively.

As for GIFVDTMSI, the Kd was found to be 1620 nM in the assay with HLA-A*02:06 (setting [1]), 936 nM with HLA-A*02:03 (setting [1]) and 2880 nM with HLA-A*02:02 (setting [1]).

With GLFKTLTGEI, the Kd with HLA-A*02:03 (source organism: Dengue virus 4 Philippines/H241/1956) came to 15 nM.

Regarding GLFTSLGKA, the dissociation constant Kd with HLA-A*02:03 (source organism: Dengue virus 4 Dominica/814669/1981) was 10.8 nM.

GMSIVCIVA: the dissociation constant Kd with HLA-A*02:06 (setting [1]) stood at 4510 nM; with HLA-A*02:03 (setting [1]) it was 656 nM; with HLA-A*02:02 (setting [1]), 190 nM.

Regarding GVEVRYIDI, the Kd with HLA-A*02:06 (setting [1]) is 10200 nM; with HLA-A*02:03 (setting [1]), at least 45300 nM; with HLA-A*02:02 (setting [1]), 12000 nM.

In the case of IIDLLLPST, the equilibrium dissociation constant (Kd) in the assay with HLA-A*02:06 (setting [1]) worked out at 1120 nM; with HLA-A*02:03 (setting [1]), 10300 nM; with HLA-A*02:02 (setting [1]) it was 15100 nM.

Regarding IIGEPIIVA, the Kd with HLA-A*02:06 (setting [1]) is 1350 nM; with HLA-A*02:03 (setting [1]) it was 4780 nM; with HLA-A*02:02 (setting [1]), 2320 nM.

In the case of IILFQNNDI, the values for the dissociation constant (Kd) with HLA-A*02:06 (setting [1]), with HLA-A*02:03 (setting [1]) and with HLA-A*02:02 (setting [1]) were 12000 nM, at least 52300 nM and 11300 nM, respectively.

In the case of ILANERYRSA, the dissociation constant (Kd) with HLA-A*02:06 (setting [1]) came to 7800 nM; in the assay with HLA-A*02:03 (setting [1]) it was 18.3 nM; in the assay with HLA-A*02:02 (setting [1]), 104 nM.

Turning to ILHNIYRLFT, the equilibrium dissociation constant (Kd) with HLA-A*02:06 (setting [1]) was determined as 1210 nM; with HLA-A*02:03 (setting [1]), 10.7 nM; in the assay with HLA-A*02:02 (setting [1]), 125 nM.

For IMTIDLDPV, the Kd with HLA-A*02:06 (setting [4]) worked out at 34.8 nM; with HLA-A*02:03 (setting [4]), 15.3 nM.

Sequence ITDVQDMDP came in with a Kd in the assay with HLA-A*01:01 (source organism: Homo sapiens) of 12300 nM.

Consider IVAAVIIMA, for which the results for the Kd with HLA-A*02:06 (setting [1]), in the assay with HLA-A*02:03 (setting [1]) and with HLA-A*02:02 (setting [1]) were 3570 nM, 2660 nM and 10400 nM, respectively.

Consider IVNTTYDFL, for which the results for the dissociation constant (Kd) in the assay with HLA-A*02:06 (setting [1]), in the assay with HLA-A*02:03 (setting [1]) and with HLA-A*02:02 (setting [1]) were 2990 nM, 4680 nM and 1880 nM, respectively.

As to KLYIALCKV, the Kd with HLA-A*02:06 (setting [5]) was 97 nM; with HLA-A*02:03 (setting [5]), 1.41 nM; with HLA-A*02:02 (setting [5]), 15.6 nM.

Consider KMFEATARGA, for which the equilibrium dissociation constant (Kd) in the assay with HLA-A*02:03 (source organism: Dengue virus 1 Brazil/97-11/1997) stood at 51.1 nM.

In the case of KTEHCDDFM, the equilibrium dissociation constant (Kd) with HLA-A*02:06 (setting [1]) came to 2520 nM; in the assay with HLA-A*02:03 (setting [1]), 18100 nM; in the assay with HLA-A*02:02 (setting [1]) it was 6500 nM.

As to LAEYIRHRNT, the dissociation constant (Kd) with HLA-A*02:06 (setting [1]) was at least 69800 nM; in the assay with HLA-A*02:03 (setting [1]), 14000 nM; with HLA-A*02:02 (setting [1]) it was at least 36100 nM.

Regarding LLNMRDLIVT, the Kd with HLA-A*02:06 (setting [1]) was 707 nM; with HLA-A*02:03 (setting [1]) it was 557 nM; in the assay with HLA-A*02:02 (setting [1]), 1420 nM.

With LNMFVSDQV, the Kd in the assay with HLA-A*02:06 (setting [6]) came out at 4810 nM; with HLA-A*02:03 (setting [6]) it was 879 nM; with HLA-A*02:02 (setting [6]) it was 17.6 nM.

With LSNCVHPAV, the Kd in the assay with HLA-A*02:06 (setting [7]) is 461 nM; in the assay with HLA-A*02:03 (setting [7]), 1100 nM; with HLA-A*02:02 (setting [7]), 427 nM.

With LTDVEKRIL, the Kd is at least 77100 nM with HLA-A*02:06 (setting [1]), at least 28500 nM in the assay with HLA-A*02:03 (setting [1]) and at least 27400 nM with HLA-A*02:02 (setting [1]).

Turning to MVDVSMMSM, the dissociation constant Kd stood at 101 nM in the assay with HLA-A*02:06 (setting [1]), 1160 nM with HLA-A*02:03 (setting [1]) and 559 nM with HLA-A*02:02 (setting [1]).

On to NMINKLYGYA, for which the dissociation constant (Kd) in the assay with HLA-A*02:06 (setting [1]) worked out at 137 nM; with HLA-A*02:03 (setting [1]) it was 0.438 nM; with HLA-A*02:02 (setting [1]), 1.57 nM.
